From article PMC10881024, “No evidence for a direct extracellular interaction between human Fc receptor–like 3 (MAIA) and the sperm ligand IZUMO1” (Science Advances, 2024)

Molecular target: T1, human IZUMO1 entire ectodomain, biotinylated, rat Cd4 domains 3 and 4 tagged (bait construct) (human, UniProt Q8IYV9 22-285, enzymatically biotinylated (BirA) on the biotinylation target sequence)
T1 construct: IZUMO1, human, entire ectodomain, truncated at P285 of Q8IYV9; Monomer as expressed; also called IZUMO1 bait; biotinylated monomeric IZUMO1; source: HEK293-6E, transient transfection, cotransfected with secreted BirA; conditioned medium dialysed in PBS, or purified from spent medium on Ni-NTA (SAVEXIS); not shown: domains 3 and 4 of rat CD4, C-terminal, kept
T1 sequence (Q8IYV9 22-285): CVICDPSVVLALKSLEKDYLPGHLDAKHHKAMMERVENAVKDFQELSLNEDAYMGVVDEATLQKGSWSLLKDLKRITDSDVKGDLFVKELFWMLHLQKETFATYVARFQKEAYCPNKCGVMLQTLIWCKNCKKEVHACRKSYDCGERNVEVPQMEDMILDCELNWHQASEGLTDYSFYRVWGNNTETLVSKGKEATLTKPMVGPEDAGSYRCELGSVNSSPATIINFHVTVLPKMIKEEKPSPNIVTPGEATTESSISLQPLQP
Experiment: SAVEXIS; purified monomeric biotinylated baits at 13.4 nM captured on streptavidin-coated plates 16 hours at 4°C; preys made multimeric by clustering biotinylated monomers around streptavidin-HRP, 4.4 nM, 1 hour at room temperature; HBS-T washes with desthiobiotin; tetramethylbenzidine, absorbance at 650 nm
Conditions: both partners purified

binding result: binds
B1: human JUNO entire ectodomain, biotinylated, rat Cd4 domains 3 and 4 tagged (bait construct) (domain or fragment, UniProt A6ND01 20-231, looked up)
chain: GDELLNICMNAKHHKRVPSPEDKLYEECIPWKDNACCTLTTSWEAHLDVSPLYNFSLFHCGLLMPGCRKHFIQAICFYECSPNLGPWIQPVGSLGWEVAPSGQGERVVNVPLCQEDCEEWWEDCRMSYTCKSNWRGGWDWSQGKNRCPKGAQCLPFSHYFPTPADLCEKTWSNSFKASPERRNSGRCLQKWFEPAQGNPNVAVARLFASSAP
modifications: enzymatically biotinylated (BirA) on the biotinylation target sequence
notes: JUNO, human, entire ectodomain, truncated at P231 of A6ND01; also called JUNO bait; human JUNO (bait); source: HEK293-6E, transient transfection, cotransfected with secreted BirA; conditioned medium dialysed in PBS (AVEXIS), or purified from spent medium on Ni-NTA (SAVEXIS); not shown: domains 3 and 4 of rat CD4, C-terminal, kept
